Tested on: SKOV3 (ovarian carcinoma) cells
Test: Apoptosis assay, annexin V and PI staining followed by FACS analysis (FIG. 1B)
Type: cell-based
Conditions: SKOV3 cells from the same transfections
Description: As a measure of cellular toxicity of the transfection agents, cells from the same transfections were stained with annexin V and PI, followed by FACS analysis (FIG. 1B). The fraction of cells positive for Annexin V, or for Annexin V and PI, are those in early or late stage apoptosis, respectively.
Apoptosis Assay. Following transfection with antisense oligonucleotides and various transfection agents, cells were gently removed from plates using 0.05% trypsin and 2 mM EDTA, washed in a buffer containing 10 mM Hepes pH7.2, 140 mM NaCl, 5 mM CaCl2, and stained with Propidium iodide at a final concentration of 1 μg/ml and Annexin-V-FLUOS (Roche Molecular Biochemicals). Cells were then analyzed for staining with each marker using a Becton Dickinson FACScan.

Row | Structure (SMILES) | Staining with annexin V or PI (apoptosis)
1 | COc1ccc(CCN(CC(N)=O)C(=O)CN(CCc2ccc(OC)cc2)C(=O)CN(CCN)C(=O)CN(CCc2ccc(OC)cc2)C(=O)CN(CCc2ccc(OC)cc2)C(=O)CN(CCN)C(=O)CN(CCc2ccc(OC)cc2)C(=O)CN(CCc2ccc(OC)cc2)C(=O)CN(CCN)C(=O)CCNC(=O)O[C@H]2CC[C@@]3(C)C(=CC[C@H]4[C@@H]5CC[C@H]([C@H](C)CCCC(C)C)[C@@]5(C)CC[C@@H]43)C2)cc1 [Cholesteroid 1] | negligible staining
2 | CCCCCCCCCCCCCC(=O)OCC(COP(=O)(O)OCCNCC(=O)N(CCN)CC(=O)N(CCc1ccc(OC)cc1)CC(=O)N(CCc1ccc(OC)cc1)CC(=O)N(CCN)CC(=O)N(CCc1ccc(OC)cc1)CC(=O)N(CCc1ccc(OC)cc1)CC(=O)N(CCN)CC(=O)N(CCc1ccc(OC)cc1)CC(=O)N(CCc1ccc(OC)cc1)CC(N)=O)OC(=O)CCCCCCCCCCCCC (centres unmarked) [Lipitoid 1] | negligible staining

Reference: US7422861B2, “Oligonucleotide transfection screening method” (priority 2000, dated 2008)
